Source: paper PMC3438196

molecular target: codon optimized Vif SLQ144-146AAA MAPPIT prey (pMG2-VifoptSLQ), P12504; test: MAPPIT; details: chain shown with the change

| Binder | percent of parent |
| --- | --- |
| Apobec3G-GFP MAPPIT bait (pCEL-Apobec3G-GFP), Q9HC16 Y59N (protein) MKPHFRNTVERMYRDTFSYNFYNRPILSRRNTVWLCYEVKTKGPSRPPLDAKIFRGQVNSELKYHPEMRFFHWFSKWRKLHRDQEYEVTWYISWSPCTKCTRDMATFLAEDPKVTLTIFVARLYYFWDPDYQEALRSLCQKRDGPRATMKIMNYDEFQHCWSKFVYSQRELFEPWNNLPKYYILLHIMLGEILRHSMDPPTFTFNFNNEPWVRGRHETYLCYEVERMHNDTWVLLNQRRGFLCNQAPHKHGFLEGRHAELCFLDVIPFWKLDLDQDYRVTCFTSWSPCFSCAQEMAKFISKNKHVSLCIFTARIYDDQGRCQEGLRTLAEAGAKISIMTYSEFKHCWDTFVDHQGCPFQPWDGLDEHSQDLSGRLRAILQNQEN | 18 % of WT |
| Apobec3G-GFP MAPPIT bait (pCEL-Apobec3G-GFP), Q9HC16 K270E (protein) MKPHFRNTVERMYRDTFSYNFYNRPILSRRNTVWLCYEVKTKGPSRPPLDAKIFRGQVYSELKYHPEMRFFHWFSKWRKLHRDQEYEVTWYISWSPCTKCTRDMATFLAEDPKVTLTIFVARLYYFWDPDYQEALRSLCQKRDGPRATMKIMNYDEFQHCWSKFVYSQRELFEPWNNLPKYYILLHIMLGEILRHSMDPPTFTFNFNNEPWVRGRHETYLCYEVERMHNDTWVLLNQRRGFLCNQAPHKHGFLEGRHAELCFLDVIPFWELDLDQDYRVTCFTSWSPCFSCAQEMAKFISKNKHVSLCIFTARIYDDQGRCQEGLRTLAEAGAKISIMTYSEFKHCWDTFVDHQGCPFQPWDGLDEHSQDLSGRLRAILQNQEN | 58 % of WT |
| Apobec3G-GFP MAPPIT bait (pCEL-Apobec3G-GFP), Q9HC16 V265M (protein) MKPHFRNTVERMYRDTFSYNFYNRPILSRRNTVWLCYEVKTKGPSRPPLDAKIFRGQVYSELKYHPEMRFFHWFSKWRKLHRDQEYEVTWYISWSPCTKCTRDMATFLAEDPKVTLTIFVARLYYFWDPDYQEALRSLCQKRDGPRATMKIMNYDEFQHCWSKFVYSQRELFEPWNNLPKYYILLHIMLGEILRHSMDPPTFTFNFNNEPWVRGRHETYLCYEVERMHNDTWVLLNQRRGFLCNQAPHKHGFLEGRHAELCFLDMIPFWKLDLDQDYRVTCFTSWSPCFSCAQEMAKFISKNKHVSLCIFTARIYDDQGRCQEGLRTLAEAGAKISIMTYSEFKHCWDTFVDHQGCPFQPWDGLDEHSQDLSGRLRAILQNQEN | 92 % of WT |
| Apobec3G-GFP MAPPIT bait (pCEL-Apobec3G-GFP), Q9HC16 R136S (protein) MKPHFRNTVERMYRDTFSYNFYNRPILSRRNTVWLCYEVKTKGPSRPPLDAKIFRGQVYSELKYHPEMRFFHWFSKWRKLHRDQEYEVTWYISWSPCTKCTRDMATFLAEDPKVTLTIFVARLYYFWDPDYQEALSSLCQKRDGPRATMKIMNYDEFQHCWSKFVYSQRELFEPWNNLPKYYILLHIMLGEILRHSMDPPTFTFNFNNEPWVRGRHETYLCYEVERMHNDTWVLLNQRRGFLCNQAPHKHGFLEGRHAELCFLDVIPFWKLDLDQDYRVTCFTSWSPCFSCAQEMAKFISKNKHVSLCIFTARIYDDQGRCQEGLRTLAEAGAKISIMTYSEFKHCWDTFVDHQGCPFQPWDGLDEHSQDLSGRLRAILQNQEN | 53 % of WT |
| Apobec3G-GFP MAPPIT bait (pCEL-Apobec3G-GFP), Q9HC16 R238C (protein) MKPHFRNTVERMYRDTFSYNFYNRPILSRRNTVWLCYEVKTKGPSRPPLDAKIFRGQVYSELKYHPEMRFFHWFSKWRKLHRDQEYEVTWYISWSPCTKCTRDMATFLAEDPKVTLTIFVARLYYFWDPDYQEALRSLCQKRDGPRATMKIMNYDEFQHCWSKFVYSQRELFEPWNNLPKYYILLHIMLGEILRHSMDPPTFTFNFNNEPWVRGRHETYLCYEVERMHNDTWVLLNQCRGFLCNQAPHKHGFLEGRHAELCFLDVIPFWKLDLDQDYRVTCFTSWSPCFSCAQEMAKFISKNKHVSLCIFTARIYDDQGRCQEGLRTLAEAGAKISIMTYSEFKHCWDTFVDHQGCPFQPWDGLDEHSQDLSGRLRAILQNQEN | 55 % of WT |
| Apobec3G-GFP MAPPIT bait (pCEL-Apobec3G-GFP), Q9HC16 R24G (protein) MKPHFRNTVERMYRDTFSYNFYNGPILSRRNTVWLCYEVKTKGPSRPPLDAKIFRGQVYSELKYHPEMRFFHWFSKWRKLHRDQEYEVTWYISWSPCTKCTRDMATFLAEDPKVTLTIFVARLYYFWDPDYQEALRSLCQKRDGPRATMKIMNYDEFQHCWSKFVYSQRELFEPWNNLPKYYILLHIMLGEILRHSMDPPTFTFNFNNEPWVRGRHETYLCYEVERMHNDTWVLLNQRRGFLCNQAPHKHGFLEGRHAELCFLDVIPFWKLDLDQDYRVTCFTSWSPCFSCAQEMAKFISKNKHVSLCIFTARIYDDQGRCQEGLRTLAEAGAKISIMTYSEFKHCWDTFVDHQGCPFQPWDGLDEHSQDLSGRLRAILQNQEN | 32 % of WT |
| Apobec3G-GFP MAPPIT bait (pCEL-Apobec3G-GFP), Q9HC16 E191V (protein) MKPHFRNTVERMYRDTFSYNFYNRPILSRRNTVWLCYEVKTKGPSRPPLDAKIFRGQVYSELKYHPEMRFFHWFSKWRKLHRDQEYEVTWYISWSPCTKCTRDMATFLAEDPKVTLTIFVARLYYFWDPDYQEALRSLCQKRDGPRATMKIMNYDEFQHCWSKFVYSQRELFEPWNNLPKYYILLHIMLGVILRHSMDPPTFTFNFNNEPWVRGRHETYLCYEVERMHNDTWVLLNQRRGFLCNQAPHKHGFLEGRHAELCFLDVIPFWKLDLDQDYRVTCFTSWSPCFSCAQEMAKFISKNKHVSLCIFTARIYDDQGRCQEGLRTLAEAGAKISIMTYSEFKHCWDTFVDHQGCPFQPWDGLDEHSQDLSGRLRAILQNQEN | 41 % of WT |
| Apobec3G-GFP MAPPIT bait (pCEL-Apobec3G-GFP), Q9HC16 D130Y (protein) MKPHFRNTVERMYRDTFSYNFYNRPILSRRNTVWLCYEVKTKGPSRPPLDAKIFRGQVYSELKYHPEMRFFHWFSKWRKLHRDQEYEVTWYISWSPCTKCTRDMATFLAEDPKVTLTIFVARLYYFWDPYYQEALRSLCQKRDGPRATMKIMNYDEFQHCWSKFVYSQRELFEPWNNLPKYYILLHIMLGEILRHSMDPPTFTFNFNNEPWVRGRHETYLCYEVERMHNDTWVLLNQRRGFLCNQAPHKHGFLEGRHAELCFLDVIPFWKLDLDQDYRVTCFTSWSPCFSCAQEMAKFISKNKHVSLCIFTARIYDDQGRCQEGLRTLAEAGAKISIMTYSEFKHCWDTFVDHQGCPFQPWDGLDEHSQDLSGRLRAILQNQEN | 43 % of WT |
| Apobec3G-GFP MAPPIT bait (pCEL-Apobec3G-GFP), Q9HC16 L27R (protein) MKPHFRNTVERMYRDTFSYNFYNRPIRSRRNTVWLCYEVKTKGPSRPPLDAKIFRGQVYSELKYHPEMRFFHWFSKWRKLHRDQEYEVTWYISWSPCTKCTRDMATFLAEDPKVTLTIFVARLYYFWDPDYQEALRSLCQKRDGPRATMKIMNYDEFQHCWSKFVYSQRELFEPWNNLPKYYILLHIMLGEILRHSMDPPTFTFNFNNEPWVRGRHETYLCYEVERMHNDTWVLLNQRRGFLCNQAPHKHGFLEGRHAELCFLDVIPFWKLDLDQDYRVTCFTSWSPCFSCAQEMAKFISKNKHVSLCIFTARIYDDQGRCQEGLRTLAEAGAKISIMTYSEFKHCWDTFVDHQGCPFQPWDGLDEHSQDLSGRLRAILQNQEN | 26 % of WT |
| Apobec3G-GFP MAPPIT bait (pCEL-Apobec3G-GFP), Q9HC16 W127R (protein) MKPHFRNTVERMYRDTFSYNFYNRPILSRRNTVWLCYEVKTKGPSRPPLDAKIFRGQVYSELKYHPEMRFFHWFSKWRKLHRDQEYEVTWYISWSPCTKCTRDMATFLAEDPKVTLTIFVARLYYFRDPDYQEALRSLCQKRDGPRATMKIMNYDEFQHCWSKFVYSQRELFEPWNNLPKYYILLHIMLGEILRHSMDPPTFTFNFNNEPWVRGRHETYLCYEVERMHNDTWVLLNQRRGFLCNQAPHKHGFLEGRHAELCFLDVIPFWKLDLDQDYRVTCFTSWSPCFSCAQEMAKFISKNKHVSLCIFTARIYDDQGRCQEGLRTLAEAGAKISIMTYSEFKHCWDTFVDHQGCPFQPWDGLDEHSQDLSGRLRAILQNQEN | 16 % of WT |
| Apobec3G-GFP MAPPIT bait (pCEL-Apobec3G-GFP), Q9HC16 W94R (protein) MKPHFRNTVERMYRDTFSYNFYNRPILSRRNTVWLCYEVKTKGPSRPPLDAKIFRGQVYSELKYHPEMRFFHWFSKWRKLHRDQEYEVTWYISRSPCTKCTRDMATFLAEDPKVTLTIFVARLYYFWDPDYQEALRSLCQKRDGPRATMKIMNYDEFQHCWSKFVYSQRELFEPWNNLPKYYILLHIMLGEILRHSMDPPTFTFNFNNEPWVRGRHETYLCYEVERMHNDTWVLLNQRRGFLCNQAPHKHGFLEGRHAELCFLDVIPFWKLDLDQDYRVTCFTSWSPCFSCAQEMAKFISKNKHVSLCIFTARIYDDQGRCQEGLRTLAEAGAKISIMTYSEFKHCWDTFVDHQGCPFQPWDGLDEHSQDLSGRLRAILQNQEN | 27 % of WT |
| Apobec3G-GFP MAPPIT bait (pCEL-Apobec3G-GFP), Q9HC16 W175R (protein) MKPHFRNTVERMYRDTFSYNFYNRPILSRRNTVWLCYEVKTKGPSRPPLDAKIFRGQVYSELKYHPEMRFFHWFSKWRKLHRDQEYEVTWYISWSPCTKCTRDMATFLAEDPKVTLTIFVARLYYFWDPDYQEALRSLCQKRDGPRATMKIMNYDEFQHCWSKFVYSQRELFEPRNNLPKYYILLHIMLGEILRHSMDPPTFTFNFNNEPWVRGRHETYLCYEVERMHNDTWVLLNQRRGFLCNQAPHKHGFLEGRHAELCFLDVIPFWKLDLDQDYRVTCFTSWSPCFSCAQEMAKFISKNKHVSLCIFTARIYDDQGRCQEGLRTLAEAGAKISIMTYSEFKHCWDTFVDHQGCPFQPWDGLDEHSQDLSGRLRAILQNQEN | 20 % of WT |
| Apobec3G-GFP MAPPIT bait (pCEL-Apobec3G-GFP), Q9HC16 Y222N (protein) MKPHFRNTVERMYRDTFSYNFYNRPILSRRNTVWLCYEVKTKGPSRPPLDAKIFRGQVYSELKYHPEMRFFHWFSKWRKLHRDQEYEVTWYISWSPCTKCTRDMATFLAEDPKVTLTIFVARLYYFWDPDYQEALRSLCQKRDGPRATMKIMNYDEFQHCWSKFVYSQRELFEPWNNLPKYYILLHIMLGEILRHSMDPPTFTFNFNNEPWVRGRHETYLCNEVERMHNDTWVLLNQRRGFLCNQAPHKHGFLEGRHAELCFLDVIPFWKLDLDQDYRVTCFTSWSPCFSCAQEMAKFISKNKHVSLCIFTARIYDDQGRCQEGLRTLAEAGAKISIMTYSEFKHCWDTFVDHQGCPFQPWDGLDEHSQDLSGRLRAILQNQEN | 12 % of WT |
| Apobec3G-GFP MAPPIT bait (pCEL-Apobec3G-GFP), Q9HC16 F157I (protein) MKPHFRNTVERMYRDTFSYNFYNRPILSRRNTVWLCYEVKTKGPSRPPLDAKIFRGQVYSELKYHPEMRFFHWFSKWRKLHRDQEYEVTWYISWSPCTKCTRDMATFLAEDPKVTLTIFVARLYYFWDPDYQEALRSLCQKRDGPRATMKIMNYDEIQHCWSKFVYSQRELFEPWNNLPKYYILLHIMLGEILRHSMDPPTFTFNFNNEPWVRGRHETYLCYEVERMHNDTWVLLNQRRGFLCNQAPHKHGFLEGRHAELCFLDVIPFWKLDLDQDYRVTCFTSWSPCFSCAQEMAKFISKNKHVSLCIFTARIYDDQGRCQEGLRTLAEAGAKISIMTYSEFKHCWDTFVDHQGCPFQPWDGLDEHSQDLSGRLRAILQNQEN | 39 % of WT |
